Measurements: patent US8691960B2, “Oxidoreductases for enantioselective reactions” (Duke University, priority 2012, dated 2014)
“Also recorded” adds a separate entry of the source.

Experiments:
Assay type in all cases: biochemical
[1] = NADH oxidation rate of purified HIDH enzymes with 2-oxoadipate (fluorescence / UV 340 nm); settings: 100 μM NADH
Experimental: (§1) NADH, 2-oxoadipate, 2-oxoglutarate, 2-heptandioate, and MgCl2 were from Sigma. Standard reaction mixes contained 15 mM 2-oxoadipate, 100 μM NADH, and a reaction buffer with final concentrations of 20 mM MgCl2 and 500 mM HEPES, pH 7.3. NADH oxidation was monitored by the decrease in fluorescence with excitation of 340 nm and emission of 450 nm on a PolarSTAR Optima plate reader (BMG Labtech). Fluorescence monitored reactions were carried out in 10-μL volumes in a 384-well black microplate (Greiner 788076) covered with clear optical film. The levels of fluorescence were converted to NADH concentrations based on standards of NADH in reaction buffer containing BSA. Reactions with high amounts of NADH were monitored by the UV absorbance of NADH at 340 nm in 40-μL reaction volumes in clear 96-well plates.
(§2) Reaction rates are NADH oxidation per unit time per unit of purified enzyme or crude lysate and 1 Unit (U) is 1 μmolNADH min^−1 mgenzyme^−1. Rates are initial rates calculated by least squares linear regression on the first 10 minutes of the reaction. For KM determination, concentrations of substrate/cofactors at least 5×-higher than the KM were used, while the species of interest was varied in concentration; substrate/cofactor concentrations: 500 μM NADH; 15 mM 2-oxoadipate; 20 mM MgCl2. Reported α-hydroxyadipate (2-hydroxy adpic acid) Vmax values were obtained from 2-oxoadipate KM determination experiments. Michaelis-Menten KM and Vmax parameters were estimated by fitting data to a curve using nonlinear regression in GraphPad Prism 5.0 (GraphPad Software, La Jolla, Calif.).
Assays were performed with 40 ng/μL enzyme, 15 mM 2-oxoadipate, 100 μM NADH, 20 mM MgCl2 and 100 mM HEPES, pH 7.3 in 10 or 20 μL volumes in 384-well black microplates. NADH concentration was monitored by the decrease in fluorescence (excitation wavelength: 340 nm; emission wavelength: 450 nm) on a fluorescent plate reader. The fluorescence intensities were converted to NADH concentrations based on NADH standards. Reactions with high amounts of NADH (>300 μM) were monitored by the UV absorbance of NADH at 340 nm in a 40 μL reaction volume in a clear 96-well plate on the same plate reader. Reactions with ScHIDH were carried out at 25° C. and reactions with TtHIDH were carried out at 45° C. Reported rates are initial rates from the first 10 minutes of reaction. For KM determination, concentrations of substrate at least 5×-higher than the KM were used (for NADH, 500 μM; for 2-oxoadipate, 15 mM) while the substrate of interest was varied in concentration. KM and Vmax were estimated by fitting data to equation (1) using nonlinear regression, where x is substrate concentration and y is the rate. y=Vmax·x/KM+x (1) Rate data for ScHIDH-R143C, -R143H, and -R143K are summarized in Table 3.

[2] = Enantiospecific LC-MS/MS quantification of (R)- and (S)-2-hydroxyadipate product; settings: TtHIDH, 2 h
Experimental: Quantitative, enantiospecific LC-MS/MS was performed based on the procedure described for 2-hydroxyglutarate. Jin et al., PLoS one 6, e16812: 1-8 (2011); Struys, et al., Clin. Chem. 50: 1391-1395 (2004). To 20 μL of reaction mix, 2 μL of 130 μg/mL of a racemic mixture of [3,3,4,4-^2H4]-2-hydroxyglutarate (internal standard) in water was added and the mixture dried by vacuum centrifuge (50° C., 15 min). The dry residue was treated with 50 mg/mL freshly prepared diacetyl-L-tartaric anhydride (Sigma) in dichloromethane/glacial acetic acid (4:1 by volume) and heated (75° C., 30 min). After drying (50° C., 15 min) the residue was dissolved in 100 μL of LC mobile phase A (see below) for analysis. An Agilent 1200 series HPLC (Santa Clara, Calif.) was used for liquid chromatography (LC) and a Sciex/Applied Biosystems API 3200 QTrap (Carlsbad, Calif.) was used for triple quadrupole mass spectrometry (MS/MS). Mobile phase A: water, 3% acetonitrile, 280 μL ammonium hydroxide (^˜25%), pH adjusted to 3.6 with formic acid (^˜98%). Mobile phase B: methanol. Analytical column: Kinetex C-18, 150×4.6 mm, 2.6 μm, and SafeGuard C-18 4×3 mm guard-column from Phenomenex (Torrance, Calif.). Column temperature: 45° C. Elution gradient at 1 mL/min flow rate: 0-1 min 0% B, 1-2 min 0-100% B, 2-3.5 min 100% B, 3.5-4 min 100-0% B, 4-10 min 0% B. Injection volume: 10 μL. Q1/Q3 (m/z) transitions were monitored: 377/161, 2-hydroxyadipate (2HA) and 367/151, [3,3,4,4-^2H4]-2-hydroxyglutarate (2HG-d4). To calibrate, 0, 0.16, 0.54, 1.8, 6, and 20 μg/mL 2-hydroxyadipate (Sigma), synthesized as described above, was analyzed in reaction buffer. (R)- and (S)-enantiomers were discriminated based on time of elution from the HPLC column, using the relative elution time for (R)-2-hydroxyglutarate compared to the racemic mixture of 2-hydroxyglutarate described previously to identify the (R)-2-hydroxyadipate enantiomer. Jin et al., PLoS one 6, e16812: 1-8 (2011). Standards were analyzed alongside experimental samples. Accuracy acceptance criteria were 85% for all but the lowest level (0.16 μg/mL, 80%).

[3] = NADH oxidation with 2-oxoadipate plus CO2 added as NaHCO3 (reductive carboxylation)
Experimental: as §1, §2

[4] = 2-hydroxyadipate dehydrogenase activity of crude bacterial lysates expressing ScHIDH mutants; settings: 100 μM NADH substrate
Experimental: To obtain crude lysates, 0.5 mL of starter cultures generated as described above were added to 4.5 mL LB-Amp, shaken for 2 h, and shaken for an additional 2 h after induction with 1 mM IPTG. Pellets from these cultures were harvested by centrifugation at 4500×g at 4° C. These pellets were resuspended into 500 μL of Buffer A (0.2% Triton-X 100, 1 mM PMSF, 0.5 mM EDTA, 10 mM Tris, pH 7.5) on ice and sonicated for 6-cycles of 15 seconds each on ice on a Sonifer 250 (Branson). This was then spun down at 13,000×g at 4° C. for 15 min and the cleared lysates were normalized with additional lysis buffer to 700 ng/4 and stored at −80° C. as aliquots. Protein concentrations were determined using the BioRad Protein Assay reagent according to the manufacturer's instructions.
as §1, §2

B1: TtHIDH-R118H: Thermus thermophilus homoisocitrate dehydrogenase R118H mutant (protein)
chain: MAYRICLIEGDGIGHEVIPAARRVLEATGLPLEFVEAEAGWETFERRGTSVPEETVEKILSCHATLFGAATSPTRKVPGFFGAIRYLRRRLDLYANVRPAKSRPVPGSRPGVDLVIVHENTEGLYVEQERRYLDVAIADAVISKKASERIGRAALRIAEGRPRKTLHIAHKANVLPLTQGLFLDTVKEVAKDFPLVNVQDIIVDNCAMQLVMRPERFDVIVTTNLLGDILSDLAAGLVGGLGLAPSGNIGDTTAVFEPVHGSAPDIAGKGIANPTAAILSAAMMLDYLGEKEAAKRVEKAVDLVLERGPRTPDLGGDATTEAFTEAVVEALKSL
modifications: TtHIDH R118H polypeptide
notes: Thermus thermophilus homoisocitrate dehydrogenase R118H mutant
- decrease of NADH concentration after 2 h ([1]; TtHIDH, 15 mM 2-oxoadipate, 45° C., 2 h): 61.3 µM
- initial rate of NADH oxidation ([1]; TtHIDH, 15 mM 2-oxoadipate, 45° C., U = μmol NADH min^−1 mg^−1): 0.058±0.0031 U
- increase of (R)-2-hydroxyadipate concentration after 2 h ([2]; 100 μM NADH, 15 mM 2-oxoadipate, 45° C.): 61.3 µM
- increase of (S)-2-hydroxyadipate ([2]; same reaction): No increase
- rate of NADH consumption with NaHCO3 added ([3]; TtHIDH, 2-oxoadipate and NADH, CO2 added as NaHCO3): 0.059 U

B2: ScHIDH-V111D: Saccharomyces cerevisiae homoisocitrate dehydrogenase V111D mutant (protein)
chain: MFRSVATRLSACRGLASNAARKSLTIGLIPGDGIGKEVIPAGKQVLENLNSKHGLSFNFIDLYAGFQTFQETGKALPDETVKVLKEQCQGALFGAVQSPTTKVEGYSSPIDALRREMGLFANVRPVKSVEGEKGKPIDMVIVRENTEDLYIKIEKTYIDKATGTRVADATKRISEIATRRIATIALDIALKRLQTRGQATLTVTHKSNVLSQSDGLFREICKEVYESNKDKYGQIKYNEQIVDSMVYRLFREPQCFDVIVAPNLYGDILSDGAAALVGSLGVVPSANVGPEIVIGEPCHGSAPDIAGKGIANPIATIRSTALMLEFLGHNEAAQDIYKAVDANLREGSIKTPDLGGKASTQQVVDDVLSRL
modifications: ScHIDH V111D polypeptide
notes: Saccharomyces cerevisiae homoisocitrate dehydrogenase V111D mutant
- 2-hydroxyadipate dehydrogenase activity in crude bacterial lysates [4]: did not demonstrate 2-hydroxyadipate dehydrogenase activity

B3: ScHIDH-Y150D: Saccharomyces cerevisiae homoisocitrate dehydrogenase Y150D mutant (protein)
chain: MFRSVATRLSACRGLASNAARKSLTIGLIPGDGIGKEVIPAGKQVLENLNSKHGLSFNFIDLYAGFQTFQETGKALPDETVKVLKEQCQGALFGAVQSPTTKVEGYSSPIVALRREMGLFANVRPVKSVEGEKGKPIDMVIVRENTEDLDIKIEKTYIDKATGTRVADATKRISEIATRRIATIALDIALKRLQTRGQATLTVTHKSNVLSQSDGLFREICKEVYESNKDKYGQIKYNEQIVDSMVYRLFREPQCFDVIVAPNLYGDILSDGAAALVGSLGVVPSANVGPEIVIGEPCHGSAPDIAGKGIANPIATIRSTALMLEFLGHNEAAQDIYKAVDANLREGSIKTPDLGGKASTQQVVDDVLSRL
modifications: ScHIDH Y150D polypeptide
notes: Saccharomyces cerevisiae homoisocitrate dehydrogenase Y150D mutant
- 2-hydroxyadipate dehydrogenase activity in crude bacterial lysates [4]: did not demonstrate 2-hydroxyadipate dehydrogenase activity

B4: ScHIDH-R114Q: Saccharomyces cerevisiae homoisocitrate dehydrogenase R114Q mutant (protein)
chain: MFRSVATRLSACRGLASNAARKSLTIGLIPGDGIGKEVIPAGKQVLENLNSKHGLSFNFIDLYAGFQTFQETGKALPDETVKVLKEQCQGALFGAVQSPTTKVEGYSSPIVALQREMGLFANVRPVKSVEGEKGKPIDMVIVRENTEDLYIKIEKTYIDKATGTRVADATKRISEIATRRIATIALDIALKRLQTRGQATLTVTHKSNVLSQSDGLFREICKEVYESNKDKYGQIKYNEQIVDSMVYRLFREPQCFDVIVAPNLYGDILSDGAAALVGSLGVVPSANVGPEIVIGEPCHGSAPDIAGKGIANPIATIRSTALMLEFLGHNEAAQDIYKAVDANLREGSIKTPDLGGKASTQQVVDDVLSRL
modifications: ScHIDH R114Q polypeptide
notes: Saccharomyces cerevisiae homoisocitrate dehydrogenase R114Q mutant
- 2-hydroxyadipate dehydrogenase activity in crude bacterial lysates [4]: did not demonstrate 2-hydroxyadipate dehydrogenase activity

B5: ScHIDH-R115Q: Saccharomyces cerevisiae homoisocitrate dehydrogenase R115Q mutant (protein)
chain: MFRSVATRLSACRGLASNAARKSLTIGLIPGDGIGKEVIPAGKQVLENLNSKHGLSFNFIDLYAGFQTFQETGKALPDETVKVLKEQCQGALFGAVQSPTTKVEGYSSPIVALRQEMGLFANVRPVKSVEGEKGKPIDMVIVRENTEDLYIKIEKTYIDKATGTRVADATKRISEIATRRIATIALDIALKRLQTRGQATLTVTHKSNVLSQSDGLFREICKEVYESNKDKYGQIKYNEQIVDSMVYRLFREPQCFDVIVAPNLYGDILSDGAAALVGSLGVVPSANVGPEIVIGEPCHGSAPDIAGKGIANPIATIRSTALMLEFLGHNEAAQDIYKAVDANLREGSIKTPDLGGKASTQQVVDDVLSRL
modifications: ScHIDH R115Q polypeptide
notes: Saccharomyces cerevisiae homoisocitrate dehydrogenase R115Q mutant
- NADH oxidation by purified enzyme in the presence of 2-oxoadipate ([1]; standard reaction conditions, 10 mM 2-oxoadipate, 20 mM MgCl2): behaved essentially the same as wild type; also recorded: did not oxidize NADH
- NADH oxidation when CO2 was provided as NaHCO3 ([3]; purified enzyme, 15 mM 2-oxoadipate, 100 μM NADH, 0-42 mM NaHCO3): did oxidize NADH
- 2-hydroxyadipate dehydrogenase activity in crude bacterial lysates [4]: did not demonstrate 2-hydroxyadipate dehydrogenase activity
